Experimental data as given in patent US20200024330A1.

Assays:
Experiment in all cases: cell-based or functional assay
[1] = biological target: HIV-1 APV-6 envelope glycoprotein (Env) on pseudovirus (HIV-1)
[2] = biological target: HIV-1 IAVI-C18 envelope glycoprotein (Env) on pseudovirus (HIV-1)
[3] = biological target: HIV-1 IAVI-C22 envelope glycoprotein (Env) on pseudovirus (HIV-1)
[4] = biological target: HIV-1 MGRM-F1-013 Env (pseudovirus) (HIV-1)
[5] = biological target: aMLV envelope protein on pseudovirus (aMLV)
[6] = biological target: HIV-1 92TH021 Env (on pseudovirus) (HIV-1)
[7] = biological target: HIV-1 93IN905 Env (on pseudovirus) (HIV-1)
[8] = biological target: HIV-1 APV6 Env (on pseudovirus) (HIV-1)
[9] = biological target: HIV-1 CMU02 Env (on pseudovirus) (HIV-1)
[10] = biological target: HIV-1 JRCSF Env (on pseudovirus) (HIV-1) (UniProt P20871)
[11] = biological target: HIV-1 MGRM-A-010 Env (on pseudovirus) (HIV-1)
[12] = biological target: HIV-1 MGRM-AG-005 Env (on pseudovirus) (HIV-1)
[13] = biological target: HIV-1 MGRM-C-026 Env (on pseudovirus) (HIV-1)
[14] = biological target: HIV-1 MGRM-C-028 Env (on pseudovirus) (HIV-1)
[15] = biological target: HIV-1 envelope glycoprotein (Env) of isolate MGRM-C-014, on pseudovirus (HIV-1)
[16] = biological target: HIV-1 envelope glycoprotein (Env) of isolate MGRM-C-023, on pseudovirus (HIV-1)
[17] = biological target: HIV-1 envelope glycoprotein (Env) of isolate MGRM-C-024, on pseudovirus (HIV-1)
[18] = biological target: HIV-1 envelope glycoprotein (Env) of isolate MGRM-C-025, on pseudovirus (HIV-1)
[19] = biological target: HIV-1 envelope glycoprotein (Env) of isolate MGRM-C-026, on pseudovirus (HIV-1)
[20] = biological target: HIV-1 envelope glycoprotein (Env) of isolate MGRM-C-028, on pseudovirus (HIV-1)
[21] = biological target: HIV-1 Env of isolate 94KE105 (HIV-1)
[22] = biological target: HIV-1 Env of isolate MGRM-A-001 (HIV-1)
[23] = biological target: HIV-1 Env of isolate MGRM-A-002 (HIV-1)
[24] = biological target: HIV-1 Env of isolate MGRM-A-006 (HIV-1)
[25] = biological target: HIV-1 Env of isolate MGRM-A-011 (HIV-1)
[26] = biological target: HIV-1 Env of isolate MGRM-A-012 (HIV-1)
[27] = biological target: HIV-1 Env of isolate MGRM-A-013 (HIV-1)
[28] = biological target: HIV-1 Env of isolate MGRM-A-014 (HIV-1)
[29] = biological target: HIV-1 MGRM-C-027 envelope glycoprotein (Env) (HIV-1)
[30] = biological target: HIV-1 NL43 envelope glycoprotein (Env) (HIV-1)
[31] = biological target: HIV-1 92TH021 envelope protein (Env) on pseudotyped virus (HIV-1 isolate 92TH021)
[32] = biological target: HIV-1 Env of isolate MGRM-D-026 (HIV-1)
[33] = biological target: HIV-1 Env of isolate MGRM-D-028 (HIV-1)
[34] = biological target: HIV-1 Env of isolate MGRM-F1-006 (HIV-1)
[35] = biological target: HIV-1 Env of isolate MGRM-F1-010 (HIV-1)
[36] = biological target: HIV-1 Env of isolate MGRM-F1-012 (HIV-1)
[37] = biological target: HIV-1 IAVI_C22 envelope protein (Env) on pseudotyped virus (HIV-1 isolate IAVI C22)
[38] = biological target: HIV-1 JR-CSF envelope protein (Env) on pseudotyped virus (HIV-1 isolate JR-CSF) (UniProt P20871)

Chain of PGT-143 (4980_N08) (antibody) (VH): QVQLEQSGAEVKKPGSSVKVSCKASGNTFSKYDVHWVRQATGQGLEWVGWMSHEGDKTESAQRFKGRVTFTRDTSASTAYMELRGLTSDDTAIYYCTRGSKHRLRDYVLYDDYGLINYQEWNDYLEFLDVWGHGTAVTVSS
Chain of PGT-143 (4980_N08) (antibody) (VL): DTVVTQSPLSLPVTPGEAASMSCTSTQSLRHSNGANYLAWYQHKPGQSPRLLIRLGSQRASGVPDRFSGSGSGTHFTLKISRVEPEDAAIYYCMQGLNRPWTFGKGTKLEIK
Chain of 1443_C16 (PG16) (TCN-116) (antibody) (VH): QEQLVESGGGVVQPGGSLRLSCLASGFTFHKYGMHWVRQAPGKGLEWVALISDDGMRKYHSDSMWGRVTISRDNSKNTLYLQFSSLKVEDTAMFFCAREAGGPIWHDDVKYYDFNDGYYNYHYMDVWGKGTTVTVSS
Chain of 1443_C16 (PG16) (TCN-116) (antibody) (VL): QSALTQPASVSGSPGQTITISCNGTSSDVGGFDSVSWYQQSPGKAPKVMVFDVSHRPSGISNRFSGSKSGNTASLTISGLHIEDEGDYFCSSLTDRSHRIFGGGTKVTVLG
Chain of PGT-141 (4964_G22; 4993_K13) (antibody) (VH): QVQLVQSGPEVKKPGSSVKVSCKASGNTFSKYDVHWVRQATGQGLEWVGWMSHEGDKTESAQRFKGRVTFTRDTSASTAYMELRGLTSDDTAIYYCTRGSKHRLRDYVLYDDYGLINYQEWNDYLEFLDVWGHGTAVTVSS
Chain of PGT-141 (4964_G22; 4993_K13) (antibody) (VL): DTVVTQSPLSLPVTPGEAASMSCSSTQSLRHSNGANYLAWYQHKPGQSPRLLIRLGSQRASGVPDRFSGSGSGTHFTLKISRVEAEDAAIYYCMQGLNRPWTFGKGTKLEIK
Chain of PGT-144 (4970_K22) (antibody) (VH): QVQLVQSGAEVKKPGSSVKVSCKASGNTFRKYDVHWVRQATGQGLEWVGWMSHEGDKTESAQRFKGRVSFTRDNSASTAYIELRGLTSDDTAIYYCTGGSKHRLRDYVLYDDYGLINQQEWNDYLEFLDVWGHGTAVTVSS
Chain of PGT-144 (4970_K22) (antibody) (VL): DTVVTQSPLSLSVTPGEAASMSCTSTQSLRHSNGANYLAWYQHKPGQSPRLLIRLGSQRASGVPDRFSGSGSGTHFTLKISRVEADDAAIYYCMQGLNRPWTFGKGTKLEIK
Chain of PGT-142 (4995_E20) (antibody) (VH): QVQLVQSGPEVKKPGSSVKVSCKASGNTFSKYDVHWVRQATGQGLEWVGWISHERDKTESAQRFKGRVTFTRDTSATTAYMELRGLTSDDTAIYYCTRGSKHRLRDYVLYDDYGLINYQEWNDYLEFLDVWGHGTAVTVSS

Substance | IC50 (ug/ml), pseudovirus neutralization [6] | IC50 (ug/ml), pseudovirus neutralization [7] | IC50 (ug/ml), pseudovirus neutralization [8] | IC50 (ug/ml), pseudovirus neutralization [9] | IC50 (ug/ml), pseudovirus neutralization [10] | IC50 (ug/ml), pseudovirus neutralization [11] | IC50 (ug/ml), pseudovirus neutralization [12] | IC50 (ug/ml), pseudovirus neutralization [13] | IC50 (ug/ml), pseudovirus neutralization [14] | IC50, pseudovirus neutralization [15] | IC50, pseudovirus neutralization [16] | IC50, pseudovirus neutralization [17] | IC50, pseudovirus neutralization [18] | IC50, pseudovirus neutralization [19] | IC50, pseudovirus neutralization [20] | IC50 (µg/mL), pseudovirus neutralization [21] | IC50 (µg/mL), pseudovirus neutralization [25] | IC50 (µg/mL), pseudovirus neutralization [26] | IC50 (µg/mL), pseudovirus neutralization [27] | IC50 (µg/mL), pseudovirus neutralization [28] | further results
b12 (antibody) |  |  |  |  |  |  |  |  |  |  |  |  |  |  |  |  |  |  |  |  | IC90 (pseudovirus neutralization) [1]: > 50 µg/mL; IC90 (pseudovirus neutralization) [2]: > 50 µg/mL; IC90 (pseudovirus neutralization) [3]: 29.6 µg/mL; IC50 (µg/ml), pseudovirus neutralization [4]: > 50 µg/mL; IC90 (pseudovirus neutralization) [5]: > 50 µg/mL
PGT-141 (4964_G22; 4993_K13) (antibody) | 0.0019 µg/mL | 0.0016 µg/mL | 5.08 µg/mL | > 10 µg/mL | 0.0047 µg/mL | 0.0563 µg/mL | 0.392 µg/mL | > 10 µg/mL | 2.35 µg/mL | 11.8 µg/mL | 0.153 µg/mL | 0.101 µg/mL | 0.247 µg/mL | > 50 µg/mL | 13.8 µg/mL |  |  |  |  |  | 
PGT-121 (antibody) |  |  |  |  |  |  |  |  |  |  |  |  |  |  |  | 0.029 µg/mL | > 50 µg/mL | 0.092 µg/mL | 0.387 µg/mL | 0.003 µg/mL | IC50 (µg/mL), pseudovirus neutralization [22]: > 50 µg/mL; IC50 (µg/mL), pseudovirus neutralization [23]: 0.013 µg/mL; IC50 (µg/mL), pseudovirus neutralization [24]: 0.396 µg/mL; IC50 neutralization [29]: 0.0094 µg/mL; IC50 neutralization [30]: > 10 µg/mL
1496_C09 (PG9) (TCN-109) (antibody) |  |  |  |  |  |  |  |  |  |  |  |  |  |  |  | 37.9 µg/mL | 0.033 µg/mL | 19.3 µg/mL | 0.122 µg/mL | 1.25 µg/mL | IC50, pseudovirus neutralization, 1 hour Virus/Ab Incubation [31]: 0.0612 µg/mL; IC50, pseudovirus neutralization, 18 hour Virus/Ab Incubation [31]: 0.0571 µg/mL; IC90 (pseudovirus neutralization) [1]: 1.96 µg/mL; IC50 (µg/mL), pseudovirus neutralization [32]: 23.7 µg/mL; IC50 (µg/mL), pseudovirus neutralization [33]: 20.2 µg/mL; IC50 (µg/mL), pseudovirus neutralization [34]: 7.25 µg/mL; IC50 (µg/mL), pseudovirus neutralization [35]: 0.012 µg/mL; IC50 (µg/mL), pseudovirus neutralization [36]: 0.023 µg/mL; IC90 (pseudovirus neutralization) [2]: 0.866 µg/mL; IC50, pseudovirus neutralization, 1 hour Virus/Ab Incubation [37]: 24.9 µg/mL; IC50, pseudovirus neutralization, 18 hour Virus/Ab Incubation [37]: 2.11 µg/mL; IC50, pseudovirus neutralization, 1 hour Virus/Ab Incubation [38]: < 0.0025 µg/mL; IC50, pseudovirus neutralization, 18 hour Virus/Ab Incubation [38]: < 0.0025 µg/mL; IC50 neutralization [29]: 2.45 µg/mL; IC50 (µg/ml), pseudovirus neutralization [4]: 0.56 µg/mL; IC50 neutralization [30]: 0.687 µg/mL
PGT-143 (4980_N08) (antibody) | 0.0028 µg/mL | 0.0021 µg/mL | 4.43 µg/mL | > 10 µg/mL | 0.0064 µg/mL | 0.0657 µg/mL | 0.244 µg/mL | > 10 µg/mL | 1.82 µg/mL | 8.81 µg/mL | 0.148 µg/mL | 0.05 µg/mL | 0.336 µg/mL | > 50 µg/mL | 12.4 µg/mL |  |  |  |  |  | 
PGT-122 (antibody) |  |  |  |  |  |  |  |  |  |  |  |  |  |  |  | 0.056 µg/mL | > 50 µg/mL | 0.257 µg/mL | 2.47 µg/mL | 0.007 µg/mL | IC50 (µg/mL), pseudovirus neutralization [22]: > 50 µg/mL; IC50 (µg/mL), pseudovirus neutralization [23]: 0.017 µg/mL; IC50 (µg/mL), pseudovirus neutralization [24]: > 50 µg/mL; IC50 neutralization [29]: 0.0388 µg/mL; IC50 neutralization [30]: > 10 µg/mL
PGT-142 (4995_E20) (antibody) | 0.0022 µg/mL | 0.0017 µg/mL | 5.42 µg/mL | > 10 µg/mL | 0.0085 µg/mL | 0.0578 µg/mL | 0.22 µg/mL | > 10 µg/mL | 1.23 µg/mL | 6.02 µg/mL | 0.087 µg/mL | 0.03 µg/mL | 0.183 µg/mL | > 50 µg/mL | 2.12 µg/mL |  |  |  |  |  | 
PGV04 (antibody) |  |  |  |  |  |  |  |  |  |  |  |  |  |  |  | 2.98 µg/mL | 0.09 µg/mL | 0.225 µg/mL | 0.086 µg/mL | 0.172 µg/mL | IC50 [22]: 6.78 µg/mL; IC50 [23]: 0.093 µg/mL; IC50 [24]: 0.244 µg/mL; IC50 (µg/mL), pseudovirus neutralization [32]: 1.76 µg/mL; IC50 (µg/mL), pseudovirus neutralization [33]: 1.01 µg/mL; IC50 (µg/mL), pseudovirus neutralization [34]: > 50 µg/mL; IC50 (µg/mL), pseudovirus neutralization [35]: 0.184 µg/mL; IC50 (µg/mL), pseudovirus neutralization [36]: 0.25 µg/mL
1443_C16 (PG16) (TCN-116) (antibody) |  |  |  |  |  |  |  |  |  |  |  |  |  |  |  |  |  |  |  |  | IC50, pseudovirus neutralization, 1 hour Virus/Ab Incubation [31]: 0.136 µg/mL; IC50, pseudovirus neutralization, 18 hour Virus/Ab Incubation [31]: 0.0435 µg/mL; IC90 (pseudovirus neutralization) [1]: 44.3 µg/mL; IC90 (pseudovirus neutralization) [2]: 0.207 µg/mL; IC90 (pseudovirus neutralization) [3]: > 50 µg/mL; IC50, pseudovirus neutralization, 1 hour Virus/Ab Incubation [37]: 0.114 µg/mL; IC50, pseudovirus neutralization, 18 hour Virus/Ab Incubation [37]: 0.106 µg/mL; IC50, pseudovirus neutralization, 1 hour Virus/Ab Incubation [38]: < 0.0025 µg/mL; IC50, pseudovirus neutralization, 18 hour Virus/Ab Incubation [38]: < 0.0025 µg/mL; IC90 (pseudovirus neutralization) [5]: > 50 µg/mL
PGT-144 (4970_K22) (antibody) | 0.0934 µg/mL | 0.158 µg/mL | > 10 µg/mL | > 10 µg/mL | 0.128 µg/mL | 4.02 µg/mL | > 10 µg/mL | > 10 µg/mL | > 10 µg/mL | > 50 µg/mL | 0.38 µg/mL | 2.06 µg/mL | 17.6 µg/mL | > 50 µg/mL | > 50 µg/mL |  |  |  |  |  | 
